Assay [1] deals with human FcγRIIb extracellular domain with C-terminal His-tag (human) (UniProt P31994). Kind of assay: SPR; binding amount / that of 04H1637-G1m/04L1610-lam1. Background: In SPR one partner is held on a chip, and binding of the other changes the refractive index at the surface.
Assay [2] shares this target. Put plainly: SPR (Biacore T200), FcγRIIb 1000 nM, amount bound per unit captured antibody.

human FcγRIIb extracellular domain with C-terminal His-tag (human), sequence (P31994 43-217): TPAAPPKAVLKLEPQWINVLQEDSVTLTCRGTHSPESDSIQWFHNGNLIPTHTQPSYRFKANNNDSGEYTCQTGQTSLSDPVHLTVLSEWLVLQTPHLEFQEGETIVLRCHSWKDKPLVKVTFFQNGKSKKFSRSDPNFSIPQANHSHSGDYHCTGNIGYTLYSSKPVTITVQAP

B1: 04H1654-KT461/04L1612-lam1//04H1656-HT443/04L1612-lam1 (antibody, human IgG1, lambda)
heavy 1: QVQLVESGGGVVQPGGSLRLSCAASGFTFSSKTMNWVRQAPGKGLEWVSSISTQSHYIYYARSVRGRFTISRDNAKNSLYLQMNSLRAEDTAVYYCARYGKREDMLWVFDYWGQGTLVTVSSASTKGPSVFPLAPSSKSTSGGTAALGCLVKDYFPEPVTVSWNSGALTSGVHTFPAVLQSSGLYSLSSVVTVPSSSLGTQTYICNVNHKPSNTKVDKRVEPKSCDKTHTCPPCPAPEFQWGPMVFLFPPKPKDVLMISRTPEVTCVVVDVSDEEPEVKFNWYVDGVEVHNAKTKPREEQYNATYRVVSVLPVLHQDWLNGKEYKCKVSNDALPAPEEKTISKAKGQPREPQVYTLPPSRKEMTKNQVSLTCLVKGFYPSDIAVEWESNGQPENNYKTTPPVLDSDGSFFLYSKLTVDKSRWQQGNVFSCSVMHEALHNHYTQKSLSLSP
heavy 2: QVQLVESGGGVVQPGGSLRLSCAASGFTFSSKTMNWVRQAPGKGLEWVSSISTQSHYIYYAESVRGRFTISRDNAKNSLYLQMNSLRAEDTAVYYCARYGAREDMLWVFDYWGQGTLVTVSSASTKGPSVFPLAPSSKSTSGGTAALGCLVKDYFPEPVTVSWNSGALTSGVHTFPAVLQSSGLYSLSSVVTVPSSSLGTQTYICNVNHKPSNTKVDKRVEPKSCDKTHTCPPCPAPELLAGPSVFLFPPKPKDVLMISRTPEVTCVVVDVSHEEPEVKFNWYVDGVEVHNAKTKPREEQYNATYRVVSVLPVLHQDWLNGKEYKCKVSNDALPAPEEETISKAKGQPREPQVYTLPPSREEMTKNQVSLTCLVKGFYPSDIAVEWESNGQPENNYKTTPPVLDSDGSFFLYSKLTVDKSRWQQGNVFSCSVMHEALHNHYTQESLSLSP
light: QSALTQPPSASGSPGQSVTISCEGPSTGVGDYTYVHWYQQHPGKAPKLMIYFTSKKPSGVPDRFSGSKSGNTASLTVSGLQAEDEADYYCQTYAAPLGPMFGGGTKLTVLGQPKAAPSVTLFPPSSEELQANKATLVCLISDFYPGAVTVAWKADSSPVKAGVETTTPSKQSNNKYAASSYLSLTPEQWKSHRSYSCQVTHEGSTVEKTVAPTECS
Consider B1, for which the Relative binding amount in assay [1] came out at 3.1. For the same molecule, in assay [2], the Binding amount turned out to be 0.025.

B2: 04H1654-KT473/04L1612-lam1//04H1656-HT482/04L1612-lam1 (antibody)
heavy 1: QVQLVESGGGVVQPGGSLRLSCAASGFTFSSKTMNWVRQAPGKGLEWVSSISTQSHYIYYARSVRGRFTISRDNAKNSLYLQMNSLRAEDTAVYYCARYGKREDMLWVFDYWGQGTLVTVSSASTKGPSVFPLAPSSKSTSGGTAALGCLVKDYFPEPVTVSWNSGALTSGVHTFPAVLQSSGLYSLSSVVTVPSSSLGTQTYICNVNHKPSNTKVDKRVEPKSCDKTHTCPPCPAPEFQWGPMVFLFPPKPKDVLMISRTPEVTCVVVDVSDEEPEVKFNWYVDGVEVHNAKTKPREEQYNATYRVVSVLPVLHQDWLNGKEYKCKVSNDALPAPIEKTISKAKGQPREPQVYTLPPSRKEMTKNQVSLTCLVKGFYPSDIAVEWESNGQPENNYKTTPPVLDSDGSFFLYSKLTVDKSRWQQGNVFSCSVMHEALHAHTTRKELSLSP
heavy 2: QVQLVESGGGVVQPGGSLRLSCAASGFTFSSKTMNWVRQAPGKGLEWVSSISTQSHYIYYAESVRGRFTISRDNAKNSLYLQMNSLRAEDTAVYYCARYGAREDMLWVFDYWGQGTLVTVSSASTKGPSVFPLAPSSKSTSGGTAALGCLVKDYFPEPVTVSWNSGALTSGVHTFPAVLQSSGLYSLSSVVTVPSSSLGTQTYICNVNHKPSNTKVDKRVEPKSCDKTHTCPPCPAPELLAGPSVFLFPPKPKDVLMISRTPEVTCVVVDVSHEEPEVKFNWYVDGVEVHNAKTKPREEQYNATYRVVSVLPVLHQDWLNGKEYKCKVSNDALPKPDEETISKAKGQPREPQVYTLPPSREEMTKNQVSLTCLVKGFYPSDIAVEWESNGQPENNYKTTPPVLDSDGSFFLYSKLTVDKSRWQQGNVFSCSVMHEALHAHTTREELSLSP
light: QSALTQPPSASGSPGQSVTISCEGPSTGVGDYTYVHWYQQHPGKAPKLMIYFTSKKPSGVPDRFSGSKSGNTASLTVSGLQAEDEADYYCQTYAAPLGPMFGGGTKLTVLGQPKAAPSVTLFPPSSEELQANKATLVCLISDFYPGAVTVAWKADSSPVKAGVETTTPSKQSNNKYAASSYLSLTPEQWKSHRSYSCQVTHEGSTVEKTVAPTECS
As for B2, in assay [1], the Relative binding amount was 3.2. The Binding amount in assay [2] worked out at 0.026.

B3: 04H1654-KT481/04L1612-lam1//04H1656-HT498/04L1612-lam1 (antibody)
heavy 1: QVQLVESGGGVVQPGGSLRLSCAASGFTFSSKTMNWVRQAPGKGLEWVSSISTQSHYIYYARSVRGRFTISRDNAKNSLYLQMNSLRAEDTAVYYCARYGKREDMLWVFDYWGQGTLVTVSSASTKGPSVFPLAPSSKSTSGGTAALGCLVKDYFPEPVTVSWNSGALTSGVHTFPAVLQSSGLYSLSSVVTVPSSSLGTQTYICNVNHKPSNTKVDKRVEPKSCDKTHTCPPCPAPEFQWGPMVFLFPPKPKDVLMISRTPEVTCVVVDVSDEEPEVKFNWYVDGVEVHNAKTKPREEQYNATYRVVSVLPVLHQDWLNGKEYKCKVSNDALPAPEEKTISKAKGQPREPQVYTLPPSRKEMTKNQVSLTCLVKGFYPSDIAVEWESNGQPENNYKTTPPVLDSDGSFFLYSKLTVDKSRWQQGNVFSCSVMHEALHAHTTRKELSLSP
heavy 2: QVQLVESGGGVVQPGGSLRLSCAASGFTFSSKTMNWVRQAPGKGLEWVSSISTQSHYIYYAESVRGRFTISRDNAKNSLYLQMNSLRAEDTAVYYCARYGAREDMLWVFDYWGQGTLVTVSSASTKGPSVFPLAPSSKSTSGGTAALGCLVKDYFPEPVTVSWNSGALTSGVHTFPAVLQSSGLYSLSSVVTVPSSSLGTQTYICNVNHKPSNTKVDKRVEPKSCDKTHTCPPCPAPELLAGPSVFLFPPKPKDVLMISRTPEVTCVVVDVSHEEPEVKFNWYVDGVEVHNAKTKPREEQYNATYRVVSVLPVLHQDWLNGKEYKCKVSNDALPAPEEETISKAKGQPREPQVYTLPPSREEMTKNQVSLTCLVKGFYPSDIAVEWESNGQPENNYKTTPPVLDSDGSFFLYSKLTVDKSRWQQGNVFSCSVMHEALHAHTTREELSLSP
light: QSALTQPPSASGSPGQSVTISCEGPSTGVGDYTYVHWYQQHPGKAPKLMIYFTSKKPSGVPDRFSGSKSGNTASLTVSGLQAEDEADYYCQTYAAPLGPMFGGGTKLTVLGQPKAAPSVTLFPPSSEELQANKATLVCLISDFYPGAVTVAWKADSSPVKAGVETTTPSKQSNNKYAASSYLSLTPEQWKSHRSYSCQVTHEGSTVEKTVAPTECS
In turn, B3 registered a Relative binding amount in assay [1] of 2.8. The same molecule registered a Binding amount in assay [2] of 0.022.

Source of the values: patent publication EP4361176A1.
